Laboratory results as given in patent publication US20170182124A1, “FGF21 Derivatives and Uses Thereof” (Novo Nordisk A/S, priority 2014, published 2017).
Numbering of substitutions follows the chain as printed. Marks after values point to notes of the source that are not given here.

B1: S{Beta-180}-[2-[2-[[2-[2-[2-[[2-[2-[2-[[(4S)-4-carboxy-4-(15-carboxypentadecanoyl-amino)butanoyl]amino]ethoxy]ethoxy]acetyl]amino]ethoxy]ethoxy]acetyl]amino]-ethylamino]-2-oxoethyl]-Ala[Gln121,Leu168, … (protein)
chain: HPIPDSSPLLQFGGQVRQRYLYTDDAQQTEAHLEIREDGTVGGAADQSPESLLQLKALKPGVIQILGVKTSRFLCQRPDGALYGSLHFDPEACSFRELLLEDGYNVYQSEAHGLPLHLPGQKSPHRDPAPRGPARFLPLPGLPPALPEPPGILAPQPPDVGSSDPLSLVGPSQGRSPSYCS
B2: S{Beta-180}-[2-[2-[[2-[2-[2-[[2-[2-[2-[[(4S)-4-carboxy-4-(17-carboxyheptadecanoyl-amino)butanoyl]amino]ethoxy]ethoxy]acetyl]amino]ethoxy]ethoxy]acetyl]amino]-ethylamino]-2-oxoethyl]-Ala[Gln121,Leu168, … (protein)
chain: B1 chain
B3: S{Beta-181}-[2-[2-[[2-[2-[2-[[2-[2-[2-[[(4S)-4-carboxy-4-(15-carboxypentadecanoyl-amino)butanoyl]amino]ethoxy]ethoxy]acetyl]amino]ethoxy]ethoxy]acetyl]amino]-ethylamino]-2-oxoethyl]-Ala[Gln121,Leu168, … (protein)
chain: B1 chain with C180A, S181C
B4: S{Beta-181}-[2-[2-[[2-[2-[2-[[2-[2-[2-[[(4S)-4-carboxy-4-(13-carboxytridecanoyl-amino)butanoyl]amino]ethoxy]ethoxy]acetyl]amino]ethoxy]ethoxy]acetyl]amino]-ethylamino]-2-oxoethyl]-Ala[Gln121,Leu168,Cy … (protein)
chain: B1 chain with C180A, S181C
B5: MetFGF21 (protein)
chain: MHPIPDSSPLLQFGGQVRQRYLYTDDAQQTEAHLEIREDGTVGGAADQSPESLLQLKALKPGVIQILGVKTSRFLCQRPDGALYGSLHFDPEACSFRELLLEDGYNVYQSEAHGLPLHLPGNKSPHRDPAPRGPARFLPLPGLPPALPEPPGILAPQPPDVGSSDPLSMVGPSQGRSPSYAS

Target: FGF receptor/BKL complex
Sequence (Q86Z14 whole entry, one chain of several): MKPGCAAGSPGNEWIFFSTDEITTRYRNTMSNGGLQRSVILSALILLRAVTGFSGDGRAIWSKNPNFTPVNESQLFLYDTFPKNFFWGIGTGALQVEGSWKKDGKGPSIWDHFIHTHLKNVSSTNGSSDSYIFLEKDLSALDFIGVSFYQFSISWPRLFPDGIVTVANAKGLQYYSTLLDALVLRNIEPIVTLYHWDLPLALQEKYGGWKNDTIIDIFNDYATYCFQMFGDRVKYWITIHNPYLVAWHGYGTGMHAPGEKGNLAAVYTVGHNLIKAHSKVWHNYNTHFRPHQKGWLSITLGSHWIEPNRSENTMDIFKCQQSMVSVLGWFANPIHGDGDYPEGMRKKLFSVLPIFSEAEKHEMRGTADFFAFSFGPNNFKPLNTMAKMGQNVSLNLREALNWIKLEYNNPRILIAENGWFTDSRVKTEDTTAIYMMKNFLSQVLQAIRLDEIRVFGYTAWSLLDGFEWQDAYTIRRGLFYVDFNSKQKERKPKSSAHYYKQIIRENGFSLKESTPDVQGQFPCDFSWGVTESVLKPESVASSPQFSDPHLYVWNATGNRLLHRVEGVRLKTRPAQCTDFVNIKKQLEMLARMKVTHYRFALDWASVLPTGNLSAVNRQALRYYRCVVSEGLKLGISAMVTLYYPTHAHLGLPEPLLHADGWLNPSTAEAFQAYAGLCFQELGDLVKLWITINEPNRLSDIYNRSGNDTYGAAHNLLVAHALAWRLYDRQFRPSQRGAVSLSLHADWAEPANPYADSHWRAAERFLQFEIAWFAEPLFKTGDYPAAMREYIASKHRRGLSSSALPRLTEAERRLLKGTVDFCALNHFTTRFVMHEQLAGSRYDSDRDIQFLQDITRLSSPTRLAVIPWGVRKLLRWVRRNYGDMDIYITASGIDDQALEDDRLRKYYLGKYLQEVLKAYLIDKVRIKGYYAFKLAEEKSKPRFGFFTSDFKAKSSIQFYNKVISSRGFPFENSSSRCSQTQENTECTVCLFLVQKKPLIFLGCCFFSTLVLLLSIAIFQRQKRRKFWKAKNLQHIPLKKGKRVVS
Test: FGF receptor potency in an Erk phosphorylation assay in HEK293 overexpressing human BKL
Format: cell-based
Conditions: HEK293/BKL cells, pERK after 12 minutes, absence of HSA; read-out: EC50
Outline: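 pERK after 12 min analogue exposure at 37° C. was quantified by AlphaScreen SureFire in lysates of beta-klotho-transfected HEK293 cells. Assay medium was DMEM with 0.02% Tween20, run both without albumin and with 0.1% final HSA to probe albumin binding. Cells were starved 2 h in basal medium first. Absolute EC50 reported.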

| Molecule | EC50 |
| --- | --- |
| B1 | 0.004 µM |
| B2 | 0.005 µM |
| B3 | 0.055 µM |
| B4 | 0.058 µM |

Same assay, conditions: HEK293/BKL cells, pERK after 12 minutes, presence of 0.1% HSA; read-out: EC50 (0.1% HSA)

| Molecule | EC50 |
| --- | --- |
| B1 | 0.006 µM |
| B2 | 0.048 µM |
| B3 | 0.072 µM |
| B4 | 0.041 µM |

Target: 3T3-L1 adipocytes (Mus musculus, UniProt P16092+Q99N32)
Sequence (Q99N32 whole entry): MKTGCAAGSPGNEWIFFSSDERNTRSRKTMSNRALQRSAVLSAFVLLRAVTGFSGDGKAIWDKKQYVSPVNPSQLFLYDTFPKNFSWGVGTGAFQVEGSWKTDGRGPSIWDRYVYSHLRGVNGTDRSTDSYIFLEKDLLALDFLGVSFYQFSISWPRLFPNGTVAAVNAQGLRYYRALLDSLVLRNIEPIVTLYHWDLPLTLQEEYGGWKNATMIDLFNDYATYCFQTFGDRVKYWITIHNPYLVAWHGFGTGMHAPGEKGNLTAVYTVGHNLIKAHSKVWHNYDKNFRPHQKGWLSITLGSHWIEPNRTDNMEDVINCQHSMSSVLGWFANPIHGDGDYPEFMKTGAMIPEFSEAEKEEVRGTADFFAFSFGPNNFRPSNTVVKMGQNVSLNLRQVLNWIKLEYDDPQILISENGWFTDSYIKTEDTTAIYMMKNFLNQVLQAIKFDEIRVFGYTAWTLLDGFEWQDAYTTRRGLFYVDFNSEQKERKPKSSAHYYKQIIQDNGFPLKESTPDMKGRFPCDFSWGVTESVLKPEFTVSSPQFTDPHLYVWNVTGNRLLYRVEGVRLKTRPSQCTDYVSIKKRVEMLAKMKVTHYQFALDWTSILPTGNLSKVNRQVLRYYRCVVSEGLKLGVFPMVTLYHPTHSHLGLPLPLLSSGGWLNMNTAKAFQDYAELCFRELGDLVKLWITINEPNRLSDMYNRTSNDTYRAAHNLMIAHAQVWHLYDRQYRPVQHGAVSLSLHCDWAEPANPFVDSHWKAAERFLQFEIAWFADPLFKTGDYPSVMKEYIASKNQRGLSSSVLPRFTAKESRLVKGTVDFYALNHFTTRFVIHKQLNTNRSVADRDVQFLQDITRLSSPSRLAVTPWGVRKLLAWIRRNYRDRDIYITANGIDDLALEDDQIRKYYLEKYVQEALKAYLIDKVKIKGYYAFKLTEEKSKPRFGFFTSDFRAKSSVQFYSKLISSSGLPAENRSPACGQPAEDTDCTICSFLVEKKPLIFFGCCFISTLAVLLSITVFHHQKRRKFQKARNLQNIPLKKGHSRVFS
Sequence (P16092 22-822): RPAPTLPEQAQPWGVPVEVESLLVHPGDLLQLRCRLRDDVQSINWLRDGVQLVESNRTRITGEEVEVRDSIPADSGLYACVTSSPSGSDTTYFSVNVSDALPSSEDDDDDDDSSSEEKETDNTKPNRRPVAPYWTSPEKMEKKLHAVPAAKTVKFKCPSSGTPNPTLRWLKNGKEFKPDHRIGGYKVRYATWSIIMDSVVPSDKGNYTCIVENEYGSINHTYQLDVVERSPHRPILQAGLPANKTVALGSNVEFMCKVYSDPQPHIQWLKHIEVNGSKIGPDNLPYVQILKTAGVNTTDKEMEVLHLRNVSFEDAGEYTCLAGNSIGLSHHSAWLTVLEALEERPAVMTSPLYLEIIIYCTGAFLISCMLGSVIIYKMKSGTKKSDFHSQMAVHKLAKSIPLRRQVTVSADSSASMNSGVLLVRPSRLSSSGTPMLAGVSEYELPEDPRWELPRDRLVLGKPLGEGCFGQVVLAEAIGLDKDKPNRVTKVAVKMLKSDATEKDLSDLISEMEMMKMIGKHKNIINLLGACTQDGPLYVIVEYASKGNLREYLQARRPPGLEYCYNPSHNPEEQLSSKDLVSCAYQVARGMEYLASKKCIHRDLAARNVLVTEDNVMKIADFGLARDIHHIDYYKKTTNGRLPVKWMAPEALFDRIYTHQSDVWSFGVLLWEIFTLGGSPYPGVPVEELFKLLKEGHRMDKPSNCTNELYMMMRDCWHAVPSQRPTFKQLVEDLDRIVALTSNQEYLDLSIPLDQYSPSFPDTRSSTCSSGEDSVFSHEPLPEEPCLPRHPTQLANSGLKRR
Test: Glucose uptake in 3T3-L1 adipocytes
Format: cell-based
Conditions: stimulated 20 hours, 3H-deoxy-glucose
Experimental: The C-terminal modified analogues were tested for their ability to increase glucose uptake in 3T3-L1 mouse adipocytes. The following assay was used for determining the biological activity, or potency, of FGF21 analogues and derivatives of the invention.
The in vitro potency may also be determined in an assay with mouse 3T3-L1 adipocytes by testing the FGF21 analogues and derivatives for their ability to increase glucose uptake into adipocytes. Differentiated 3T3-L1 adipocytes endogenously express FGFR1c and BKL. The 3T3-L1 cells are unresponsive to FGF21 until after differentiated as differentiation lead to expression of the co-receptor BKL. Activation of the FGFR1 receptor/BKL complex increase the expression of glucose transporter 1 (GLUT1) and therefore FGF21 agonists will lead to an increased amount of glucose taken into the adipocytes in a dose responsive manner.
Mouse 3T3-L1 fibroblasts (e.g. available from ATCC, catalogue no. CL-173) were maintained in basal medium (DMEM (4500 mg/I Glucose) with 10% Fetal Bovine Serum (FBS) and 1% Penicillin/Streptomycin). The cells are not allowed to reach confluence and should be passed (transferred to new vials) before reaching approx. 60% of confluency (by visual inspection).
For the glucose uptake assay, cells were 15.000 cells/well in a 96 well plate (BIOCOAT), and when they reached confluency (high density, with a view to have differentiated adipose cells made), the medium was changed from basal medium to basal medium containing Troglitazone, IBMX, Dexamethasone (commercially available from, e.g., Sigma) and human insulin (commercially available from, e.g., Novo Nordisk A/S).
The cells were used 7-9, days after initiation of differentiation. The cells were stimulated with increasing concentrations (0-300 nM) of the FGF21 analogues or derivatives of the invention for 20 hours in basal medium. Before addition of 3H-deoxy-glucose (in what follows: the tracer) the cells were washed in warm (approximately 37° C.) assay buffer (PBS with 1 mM MgCl2 and 2 mM CaCl2), HEPES and 0.1% Human serum albumin) and the cells were incubated with the tracer for 1 hour. This incubation was terminated by washing twice in ice cold assay buffer. The cells were lysed with Triton X-100 and lysates transferred to a 96 wells plate, microscint-40 (commercially available from, e.g., Perkin Elmer) was added and amount of tracer counted in a TOP-counter (e.g. a Packard top-counter from Perkin Elmer). The EC50 and Emax of the FGF21 compound in question were calculated. The results which are shown in tables 4-5 below indicate the EC50 (potency) and Emax (efficacy) of the FGF21 analogues and derivatives, respectively.

| Molecule | EC50 | Glucose uptake Emax |
| --- | --- | --- |
| B1 | 0.0091 µM | 98% |
| B2 | 0.032 µM | 109% |
| B3 | 0.031 µM | 61% |
| B4 | 0.0072 µM | 55% |
| B5 | – | 100% |

Tested on: not listed separately
Test: Body weight reduction in lean mice
Format: in vivo, lean C57BL mice
Conditions: s.c. 1 mg/kg BID for 7 days, change from baseline day 1 to 7
Experimental: In order to determine the in vivo potency of the FGF21 derivatives the effect on body weight was studied in lean C57BL mice after subcutaneous (s.c.) administration. It has previously been shown that the weight loss induced by FGF21 in lean mice is predictive of the effect in obese mice and therefore lean mice are considered a good screening model.
The compounds were administered s.c. 1 mg/kg either once (QD) or twice (BID) daily in 10 mM phosphate, 2% (w/vol) glycerol, 500ppm (=0.05%) polysorbate 80, pH=8.15, (2 ml/kg) for 7 days (n=7-8). The respective vehicle treated groups (control) were treated with 10 mM phosphate, 2% (w/vol) glycerol, 500ppm (=0.05%) polysorbate 80, pH=8.15, (2 ml/kg) s.c. twice daily for 7 days (n=6-8). Body weight was measured before dosing and again after 7 days treatment.

| Molecule | Mean Δ body weight (%) |
| --- | --- |
| B4 | −0.94% |
| B5 | −1.88** % |

Same assay, conditions: s.c. 1 mg/kg QD for 7 days, change from baseline day 1 to 7

| Molecule | Mean Δ body weight (%) |
| --- | --- |
| B1 | −4.48*** % |
| B2 | −10.59*** % |
| B3 | 0.18% |

Tested on: not given
Test: not given
Conditions: mouse, in vivo, iv, 20 mg/kg

| Molecule | Half-life mice |
| --- | --- |
| B5 | 1 h |

Tested on: not given
Test: not given
Conditions: pig, in vivo, iv

| Molecule | Half-life mini pigs |
| --- | --- |
| B5 | 2 h |

Tested on: not listed separately
Test: Pharmacokinetic study in mice (i.v.)
Conditions: terminal half-life, single intravenous dose of 20 mg/kg, lean C57bl mice
Experimental: This was done in a pharmacokinetic (PK) study, where the terminal half-life of the analogue in question was determined. By terminal half-life is meant the time it takes to halve a certain plasma concentration in the terminal elimination phase.
The pharmacokinetic profile of FGF21 analogues was tested in normal lean C57b1 mice, n =2-3 (approximately 30 grams). FGF21 compounds were dosed as a single intravenous dose of 20 mg/kg (approximately 5 ml/kg).
The plasma levels of the FGF21 compounds were determined using Fibroblast Growth Factor-21 Human ELISA (available from BioVendor, catalogue no. RD191108200R). The PC based software, WnNonLin version 6.3 from Pharsight Corportion, Cary N.C., was used for the pharmacokinetic calculation.

| Molecule | Half-life mice |
| --- | --- |
| B1 | 3 h |
| B2 | 12 h |
| B3 | 4 h |
| B4 | 3 h |

Tested on: not listed separately
Test: Pharmacokinetic study in mini pigs (i.v.)
Conditions: terminal half-life, female Gottingen mini pigs
Experimental: The purpose of this study was to determine the protraction in vivo of the FGF21 derivatives after i.v. administration to mini pigs and mice, i.e. the prolongation of their time in the body and thereby their time of action. This was done in a pharmacokinetic (PK) study, where the terminal half-life of the analogue in question was determined. By terminal half-life is meant the time it takes to halve a certain plasma concentration in the terminal elimination phase.
Female Gottingen mini pigs were obtained from Ellegaard Gottingen Minipigs (Dalmose, Denmark) approximately 7-14 months of age and weighing approximately 16-35 kg were used in the studies. The mini pigs were housed either individually (pigs with permanent catheters) or in a group and fed restrictedly once or twice daily with SDS mini pig diet (Special Diets Services, Essex, UK).
After at least 2 weeks of acclimatisation two permanent central venous catheters were implanted in vena cava caudalis or cranialis in each animal. The animals were allowed 1 week recovery after the surgery, and were then used for repeated pharmacokinetic studies with a suitable wash-out period between successive dosing.
Blood samples (for example 0.8 ml) were collected in EDTA (8 mM) coated tubes and then centrifuged at 4° C. and 1942G for 10 minutes. Blood samples were collected to adequately cover the full plasma concentration-time profile of the API. In example blood samples were collected at t=predose, 0.0833, 0.25, 0.5, 0.75, 1, 1.5, 2, 3, 4, 6, 8, 10, 24, 30, 48, 72, 96, 120, 144, 168, 192, 216, 240, 264 hours after dose.
Plasma was pipetted into Micronic tubes on dry ice, and kept at −20° C. until analysed for plasma concentration of the respective FGF-1 analogue using ELISA. Individual plasma concentration-time profiles were analyzed by a non-compartmental pharmacokinetic method in Phoenix v. 6.3 (Pharsight Inc., Mountain View, Calif., USA), or other relevant software for PK analysis, and the resulting terminal half-lives (harmonic mean) determined.

| Molecule | Half-life mini pigs |
| --- | --- |
| B1 | 23 h |
| B2 | 70 h |
| B3 | 25 h |
| B4 | 2 h |
